One block for each substance: values may come before it.
How the values were obtained:
[1] = tested on: brain β-tubulin (taxotere-stabilized brain microtubules, Example VII)
[2] = tested on: brain α-tubulin (taxotere-stabilized brain microtubules, Example VII)
[3] = tested on: adult murine brain tubulin
[4] = tested on: young murine brain tubulin
[5] = tested on: α-tubulin of taxotere-stabilized mouse brain microtubules
[6] = target: β-tubulin of taxotere-stabilized mouse brain microtubules (mouse); experiment: cell-based or functional assay
[7] = target: α-tubulin of taxotere-stabilized mouse brain microtubules (mouse); experiment: cell-based or functional assay

Substance: GFP-Ttll3Ap (Tetrahymena Ttll3Ap with N-terminal GFP)
- in vitro tubulin glycylation activity (3H-glycine incorporation) [1]: A GFP-Ttll3Ap-enriched extract showed a strong increase in glycylation activity on α- and β-tubulin
- in vitro tubulin glycylation activity (3H-glycine incorporation) [2]: A GFP-Ttll3Ap-enriched extract showed a strong increase in glycylation activity on α- and β-tubulin

Substance: GFP-Ttll3Bp (Tetrahymena Ttll3Bp with N-terminal GFP)
- in vitro tubulin glycylation activity (3H-glycine incorporation) [2]: the GFP-Ttll3Bp-enriched extract had increased activity on α-tubulin

Substance: GFP-Ttll6Ap (full-length Tetrahymena Ttll6Ap with N-terminal GFP)
- in vitro glutamylation of microtubules (3H-glutamate, fluorogram) [3]: Enriched GFP-Ttll6Ap strongly modified microtubules made of adult brain tubulin
- in vitro glutamylation of unpolymerized tubulin (3H-glutamate, fluorogram) [3]: enriched GFP-Ttll6Ap did not modify unpolymerized adult brain tubulin
- in vitro glutamylation of microtubules (3H-glutamate, fluorogram) [4]: less efficiently microtubules made of young brain tubulin
- in vitro glutamylation of microtubules (3H-glutamate, fluorogram) (HeLa tubulin): failed to detectably modify microtubules made of HeLa tubulin

Substance: Ttll1p-GFP (Tetrahymena thermophila Ttll1p with an N-terminal GFP)
- in vitro glutamylase activity of the anti-GFP immunoprecipitate [5]: a glutamylase activity directed mostly toward α-tubulin was co-immunoprecipitated with anti-GFP antibodies from extracts of overexpressing cells

Substance: Ttll6ApΔ710-GFP (truncated Tetrahymena Ttll6Ap, amino acid codons 1-710, with N-terminal GFP)
- in vitro glutamylase activity (NAP proteins): No in vitro activity toward NAP proteins was detected.

- in vitro glutamylase activity of extracts of overexpressing cells, compared to non-induced cells [6]: 100 fold
- in vitro glutamylase activity of extracts of overexpressing cells, compared to non-induced cells [7]: 10 fold
Substance: Ttll6ApΔ710-GFP (truncated Tetrahymena Ttll6Ap, amino acid codons 1-710, with N-terminal GFP) (from UniProt P42212 1-238) (enzyme)

— patent publication US20100261220A1
